Results reported in patent US20030228654A1, “Method for producing antimicrobial protein and fusion protein” (KABUSHIKI KAISHA TOYOTA CHUO KENKYUSHO, priority 2000, published 2003).

System: Ceratocystis fimbriata
Assay: Assay of antimicrobial activity: growth inhibition of Ceratocystis fimbriata spore suspension in 96-well microplate, absorbance at 415 nm
Format: cell-based
Details: Factor Xa-cleaved, concentrated protein solution 30 μl per well; MES buffer pH 6; 26° C.; absorbance 415 nm, 48 hours vs 30 minutes
Experimental: As shown in SEQ ID No: 1, 2 or 4, the fusion proteins of Examples 1 and 2 and Comparative Example 2 thus dialyzed retained the recognition sequence of a protease Factor Xa in between thionin and the partner protein. Then, the fusion protein was subjected to cleavage with Factor Xa of 30 μg per 1 mg of each fusion protein described above at 30° C. overnight.
The protein solution recovered by the cleavage procedures was concentrated to 30 μl using Microcon-3 (MWCO: 3000) as a concentration unit with a filtration membrane. Such great number of concentrated sample solutions were divided at 30 μl each in the individual wells of a 96-well microplate, followed by addition of 10 μl of 200 mM MES [2-(N-morpholino)ethanesulfonic acid] buffer at pH 6 and 60 μL of a spore suspension of Ceratocystis fimbriata (100,000 spores per 1 ml-80% potato dextrose broth). Then, the resulting mixtures were cultured at 26° C. […]
Then, the absorbance 30 minutes and 48 hours later was measured at 415 nm with a microplate reader of Model 3550. The growth inhibition was determined by the following formula (1). Herein, A represents the value obtained by subtracting the absorbance measured 30 minutes later from that measured 48 hours later in each concentrated sample solution, and B represents the same value in a solution not containing the sample. […]

B1: Example 2: Fusion protein of barley thionin and PDI from Fumicola insolens (SEQ ID No: 2); refolded, cleaved with Factor Xa (protein)
chain: EKHMIEGRMKSCCRSTLGRNCYNLCRVRGAQKLCAGVCRCKLTSSGKCPTGFPKMIEGRTLALVSNSDEPDTVKYCNLGCRASMCDYMVNAAADDEEMKLYLENCGDACVNFCNGDAGLTSLTA
modifications: Hordeum vulgare
Growth inhibition (%): 99.1%
